From publication PMC2716403 (2009)

B1: Nup153 ZnF region (protein)
chain: AGSSWQCDTCLLQNKVTDNKCIACQAAKLPLKETAKQTGIGTPSKSDKPASTSGTGFGDKFKPAIGTWDCDTCLVQNKPEAVKCVACETPKPGTGVKRALPLTVASESPVTASSSTTVTTGTLGFGDKFKRPVGSWECPVCCVSNKAEDSRCVSCTSEKPGLVSASSSNSVPVSLPSGGCLGLDKFKKPEGSWDCEVCLVQNKADSTKCIACESAKPGTKSEFKGFGT
modifications: GDP-bound Ran
B2: Nup153 ZnF region (protein)
chain: B1 chain

molecular target: Ran (Homo sapiens, UniProt P62826); assay: ITC

Row | Kd [µM] | Binder
1 | 6.5 | AGSSWQCDTCLLQNKVTDNKCIACQAAKL (GDP-bound Ran) [Nup153 ZnF1 ZnF1]
2 | 1 | B1
3 | 20 | B2
4 | 6.6 | VGSWECPVCCVSNKAEDSRCVSCTSEKPG (GDP-bound Ran) [Nup153 ZnF3 ZnF3]
